Measured values from patent US20210388087A1 (Chugai, published 2021).

Molecular target: T1, Human CD137 ECD (human)
T1 construct: also called 4-1BB
Test: single mutant vs template dBBDu183H

T1 sequence (chain, as listed by the source limits assumed): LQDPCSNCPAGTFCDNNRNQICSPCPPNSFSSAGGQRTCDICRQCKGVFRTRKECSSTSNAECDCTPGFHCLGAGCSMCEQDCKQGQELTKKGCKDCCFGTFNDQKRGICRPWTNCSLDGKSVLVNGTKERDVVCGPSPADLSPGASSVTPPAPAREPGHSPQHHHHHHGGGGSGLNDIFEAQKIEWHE

Row | Binder | fold change of affinity [fold]
1 | H183/L072 VH S62M (antibody, name in Kabat numbering, V domains shown) VH: QVQLVESGGGLVQPGRSLRLSCAASGFTFSNAWMHWVRQAPGKGLEWVAQIKDKGNAYAAYYAPMVKGRFTISRDDSKNSIYLQMNSLKTEDTAVYYCHYVHYASASTVLPAFGVDAWGQGTTVTVSS VL: DIVMTQSPLSLPVTPGEPASISCQASQELVHMNRNTYLHWYQQKPGQAPRLLIYKVSNRFPGVPDRFSGSGSGTDFTLKISRVEAEDVGVYYCAQGTSVPFTFGQGTKLEIK | 0.8
2 | H183/L072 VH S99L (antibody, name in Kabat numbering, V domains shown) VH: QVQLVESGGGLVQPGRSLRLSCAASGFTFSNAWMHWVRQAPGKGLEWVAQIKDKGNAYAAYYAPSVKGRFTISRDDSKNSIYLQMNSLKTEDTAVYYCHYVHYALASTVLPAFGVDAWGQGTTVTVSS VL: DIVMTQSPLSLPVTPGEPASISCQASQELVHMNRNTYLHWYQQKPGQAPRLLIYKVSNRFPGVPDRFSGSGSGTDFTLKISRVEAEDVGVYYCAQGTSVPFTFGQGTKLEIK | 0.3
3 | H183/L072 VH T28K (antibody, name in Kabat numbering, V domains shown) VH: QVQLVESGGGLVQPGRSLRLSCAASGFKFSNAWMHWVRQAPGKGLEWVAQIKDKGNAYAAYYAPSVKGRFTISRDDSKNSIYLQMNSLKTEDTAVYYCHYVHYASASTVLPAFGVDAWGQGTTVTVSS VL: DIVMTQSPLSLPVTPGEPASISCQASQELVHMNRNTYLHWYQQKPGQAPRLLIYKVSNRFPGVPDRFSGSGSGTDFTLKISRVEAEDVGVYYCAQGTSVPFTFGQGTKLEIK | 1.1
4 | H183/L072 VH T28M (antibody, name in Kabat numbering, V domains shown) VH: QVQLVESGGGLVQPGRSLRLSCAASGFMFSNAWMHWVRQAPGKGLEWVAQIKDKGNAYAAYYAPSVKGRFTISRDDSKNSIYLQMNSLKTEDTAVYYCHYVHYASASTVLPAFGVDAWGQGTTVTVSS VL: DIVMTQSPLSLPVTPGEPASISCQASQELVHMNRNTYLHWYQQKPGQAPRLLIYKVSNRFPGVPDRFSGSGSGTDFTLKISRVEAEDVGVYYCAQGTSVPFTFGQGTKLEIK | 0.7
5 | H183/L072 VH T28H (antibody, name in Kabat numbering, V domains shown) VH: QVQLVESGGGLVQPGRSLRLSCAASGFHFSNAWMHWVRQAPGKGLEWVAQIKDKGNAYAAYYAPSVKGRFTISRDDSKNSIYLQMNSLKTEDTAVYYCHYVHYASASTVLPAFGVDAWGQGTTVTVSS VL: DIVMTQSPLSLPVTPGEPASISCQASQELVHMNRNTYLHWYQQKPGQAPRLLIYKVSNRFPGVPDRFSGSGSGTDFTLKISRVEAEDVGVYYCAQGTSVPFTFGQGTKLEIK | 1.1
6 | H183/L072 VH S62P (antibody, name in Kabat numbering, V domains shown) VH: QVQLVESGGGLVQPGRSLRLSCAASGFTFSNAWMHWVRQAPGKGLEWVAQIKDKGNAYAAYYAPPVKGRFTISRDDSKNSIYLQMNSLKTEDTAVYYCHYVHYASASTVLPAFGVDAWGQGTTVTVSS VL: DIVMTQSPLSLPVTPGEPASISCQASQELVHMNRNTYLHWYQQKPGQAPRLLIYKVSNRFPGVPDRFSGSGSGTDFTLKISRVEAEDVGVYYCAQGTSVPFTFGQGTKLEIK | 0.7
7 | H183/L072 VH T28R (antibody, name in Kabat numbering, V domains shown) VH: QVQLVESGGGLVQPGRSLRLSCAASGFRFSNAWMHWVRQAPGKGLEWVAQIKDKGNAYAAYYAPSVKGRFTISRDDSKNSIYLQMNSLKTEDTAVYYCHYVHYASASTVLPAFGVDAWGQGTTVTVSS VL: DIVMTQSPLSLPVTPGEPASISCQASQELVHMNRNTYLHWYQQKPGQAPRLLIYKVSNRFPGVPDRFSGSGSGTDFTLKISRVEAEDVGVYYCAQGTSVPFTFGQGTKLEIK | 1.5
8 | H183/L072 VH S100aI (antibody, name in Kabat numbering, V domains shown) VH: QVQLVESGGGLVQPGRSLRLSCAASGFTFSNAWMHWVRQAPGKGLEWVAQIKDKGNAYAAYYAPSVKGRFTISRDDSKNSIYLQMNSLKTEDTAVYYCHYVHYASAITVLPAFGVDAWGQGTTVTVSS VL: DIVMTQSPLSLPVTPGEPASISCQASQELVHMNRNTYLHWYQQKPGQAPRLLIYKVSNRFPGVPDRFSGSGSGTDFTLKISRVEAEDVGVYYCAQGTSVPFTFGQGTKLEIK | 0
9 | H183/L072 VH S100aM (antibody, name in Kabat numbering, V domains shown) VH: QVQLVESGGGLVQPGRSLRLSCAASGFTFSNAWMHWVRQAPGKGLEWVAQIKDKGNAYAAYYAPSVKGRFTISRDDSKNSIYLQMNSLKTEDTAVYYCHYVHYASAMTVLPAFGVDAWGQGTTVTVSS VL: DIVMTQSPLSLPVTPGEPASISCQASQELVHMNRNTYLHWYQQKPGQAPRLLIYKVSNRFPGVPDRFSGSGSGTDFTLKISRVEAEDVGVYYCAQGTSVPFTFGQGTKLEIK | 0
10 | H183/L072 VH S99A (antibody, name in Kabat numbering, V domains shown) VH: QVQLVESGGGLVQPGRSLRLSCAASGFTFSNAWMHWVRQAPGKGLEWVAQIKDKGNAYAAYYAPSVKGRFTISRDDSKNSIYLQMNSLKTEDTAVYYCHYVHYAAASTVLPAFGVDAWGQGTTVTVSS VL: DIVMTQSPLSLPVTPGEPASISCQASQELVHMNRNTYLHWYQQKPGQAPRLLIYKVSNRFPGVPDRFSGSGSGTDFTLKISRVEAEDVGVYYCAQGTSVPFTFGQGTKLEIK | 1.4
11 | H183/L072 VH T28Q (antibody, name in Kabat numbering, V domains shown) VH: QVQLVESGGGLVQPGRSLRLSCAASGFQFSNAWMHWVRQAPGKGLEWVAQIKDKGNAYAAYYAPSVKGRFTISRDDSKNSIYLQMNSLKTEDTAVYYCHYVHYASASTVLPAFGVDAWGQGTTVTVSS VL: DIVMTQSPLSLPVTPGEPASISCQASQELVHMNRNTYLHWYQQKPGQAPRLLIYKVSNRFPGVPDRFSGSGSGTDFTLKISRVEAEDVGVYYCAQGTSVPFTFGQGTKLEIK | 0.5
12 | H183/L072 VH T28A (antibody, name in Kabat numbering, V domains shown) VH: QVQLVESGGGLVQPGRSLRLSCAASGFAFSNAWMHWVRQAPGKGLEWVAQIKDKGNAYAAYYAPSVKGRFTISRDDSKNSIYLQMNSLKTEDTAVYYCHYVHYASASTVLPAFGVDAWGQGTTVTVSS VL: DIVMTQSPLSLPVTPGEPASISCQASQELVHMNRNTYLHWYQQKPGQAPRLLIYKVSNRFPGVPDRFSGSGSGTDFTLKISRVEAEDVGVYYCAQGTSVPFTFGQGTKLEIK | 0.4
13 | H183/L072 VH T28P (antibody, name in Kabat numbering, V domains shown) VH: QVQLVESGGGLVQPGRSLRLSCAASGFPFSNAWMHWVRQAPGKGLEWVAQIKDKGNAYAAYYAPSVKGRFTISRDDSKNSIYLQMNSLKTEDTAVYYCHYVHYASASTVLPAFGVDAWGQGTTVTVSS VL: DIVMTQSPLSLPVTPGEPASISCQASQELVHMNRNTYLHWYQQKPGQAPRLLIYKVSNRFPGVPDRFSGSGSGTDFTLKISRVEAEDVGVYYCAQGTSVPFTFGQGTKLEIK | 0.5
14 | H183/L072 VH T28I (antibody, name in Kabat numbering, V domains shown) VH: QVQLVESGGGLVQPGRSLRLSCAASGFIFSNAWMHWVRQAPGKGLEWVAQIKDKGNAYAAYYAPSVKGRFTISRDDSKNSIYLQMNSLKTEDTAVYYCHYVHYASASTVLPAFGVDAWGQGTTVTVSS VL: DIVMTQSPLSLPVTPGEPASISCQASQELVHMNRNTYLHWYQQKPGQAPRLLIYKVSNRFPGVPDRFSGSGSGTDFTLKISRVEAEDVGVYYCAQGTSVPFTFGQGTKLEIK | 0.8
15 | H183/L072 VH S99I (antibody, name in Kabat numbering, V domains shown) VH: QVQLVESGGGLVQPGRSLRLSCAASGFTFSNAWMHWVRQAPGKGLEWVAQIKDKGNAYAAYYAPSVKGRFTISRDDSKNSIYLQMNSLKTEDTAVYYCHYVHYAIASTVLPAFGVDAWGQGTTVTVSS VL: DIVMTQSPLSLPVTPGEPASISCQASQELVHMNRNTYLHWYQQKPGQAPRLLIYKVSNRFPGVPDRFSGSGSGTDFTLKISRVEAEDVGVYYCAQGTSVPFTFGQGTKLEIK | 0
16 | H183/L072 VH T28E (antibody, name in Kabat numbering, V domains shown) VH: QVQLVESGGGLVQPGRSLRLSCAASGFEFSNAWMHWVRQAPGKGLEWVAQIKDKGNAYAAYYAPSVKGRFTISRDDSKNSIYLQMNSLKTEDTAVYYCHYVHYASASTVLPAFGVDAWGQGTTVTVSS VL: DIVMTQSPLSLPVTPGEPASISCQASQELVHMNRNTYLHWYQQKPGQAPRLLIYKVSNRFPGVPDRFSGSGSGTDFTLKISRVEAEDVGVYYCAQGTSVPFTFGQGTKLEIK | 0.3
17 | H183/L072 VH S100aA (antibody, name in Kabat numbering, V domains shown) VH: QVQLVESGGGLVQPGRSLRLSCAASGFTFSNAWMHWVRQAPGKGLEWVAQIKDKGNAYAAYYAPSVKGRFTISRDDSKNSIYLQMNSLKTEDTAVYYCHYVHYASAATVLPAFGVDAWGQGTTVTVSS VL: DIVMTQSPLSLPVTPGEPASISCQASQELVHMNRNTYLHWYQQKPGQAPRLLIYKVSNRFPGVPDRFSGSGSGTDFTLKISRVEAEDVGVYYCAQGTSVPFTFGQGTKLEIK | 0
18 | H183/L072 VH S99M (antibody, name in Kabat numbering, V domains shown) VH: QVQLVESGGGLVQPGRSLRLSCAASGFTFSNAWMHWVRQAPGKGLEWVAQIKDKGNAYAAYYAPSVKGRFTISRDDSKNSIYLQMNSLKTEDTAVYYCHYVHYAMASTVLPAFGVDAWGQGTTVTVSS VL: DIVMTQSPLSLPVTPGEPASISCQASQELVHMNRNTYLHWYQQKPGQAPRLLIYKVSNRFPGVPDRFSGSGSGTDFTLKISRVEAEDVGVYYCAQGTSVPFTFGQGTKLEIK | 0.8
19 | H183/L072 VH T28G (antibody, name in Kabat numbering, V domains shown) VH: QVQLVESGGGLVQPGRSLRLSCAASGFGFSNAWMHWVRQAPGKGLEWVAQIKDKGNAYAAYYAPSVKGRFTISRDDSKNSIYLQMNSLKTEDTAVYYCHYVHYASASTVLPAFGVDAWGQGTTVTVSS VL: DIVMTQSPLSLPVTPGEPASISCQASQELVHMNRNTYLHWYQQKPGQAPRLLIYKVSNRFPGVPDRFSGSGSGTDFTLKISRVEAEDVGVYYCAQGTSVPFTFGQGTKLEIK | 0.3
20 | H183/L072 VH S100aL (antibody, name in Kabat numbering, V domains shown) VH: QVQLVESGGGLVQPGRSLRLSCAASGFTFSNAWMHWVRQAPGKGLEWVAQIKDKGNAYAAYYAPSVKGRFTISRDDSKNSIYLQMNSLKTEDTAVYYCHYVHYASALTVLPAFGVDAWGQGTTVTVSS VL: DIVMTQSPLSLPVTPGEPASISCQASQELVHMNRNTYLHWYQQKPGQAPRLLIYKVSNRFPGVPDRFSGSGSGTDFTLKISRVEAEDVGVYYCAQGTSVPFTFGQGTKLEIK | 0
